Source: the supplement of paper PMC9170038

Test system: MS2 coat protein
Experiment: apparent KD of MS2 coat protein; designed switch direction (-1 OFF switch, 1 ON switch): -1; higher = weaker reporter binding
Method in brief: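 On Illumina chips, designed RNA switches with common flanks were made by stalled E. coli RNA polymerase. Titrations with SNAP-549-labelled MS2 coat protein, doubling from 0.7 or 1.5 nM to 3 µM, were done with no input, with 200 uM small-molecule ligand, or with an oligonucleotide input. Apparent KD is the median per design over clusters, from curve fits of normalised cluster fluorescence.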

[1] = Eterna round: R95, input ligand: FMN 200 uM
[2] = Eterna round: R95, input ligand: microRNA oligo, concentration not stated
[3] = Eterna round: R95, input ligand: none
[4] = input ligand: microRNA oligo, concentration not stated

Sequence	apparent KD of MS2 coat protein [1] [nM]	apparent KD of MS2 coat protein [2] [nM]	apparent KD of MS2 coat protein [3] [nM]	apparent KD of MS2 coat protein (input ligand: FMN 200 uM) [nM]	apparent KD of MS2 coat protein (input ligand: none) [nM]	apparent KD of MS2 coat protein [4] [nM]
AAGAAACAUGAGGAUCACCCAUGUGAGGAUAUGAGGAAGAAAAGAAAAGAAAGAAGAUUCAGAAGGCACAAAGG [salish99-ex1_r3_058] (puzzle: Exclusion 1)	96.3	35.1	59.1			
GGUUAUUGCAAGGAUAUGCUUUUUUGUGAAAUUGCAGAAGGUGCAACAUGAGGAUCACCCAUGUUGGAUGGGUU [JR_E6_Sub017] (puzzle: Exclusion 6)		93.7				
AGUUGGCGAGGAUAUACAUGAGGAUCACCCAUGUGGUCCUGCGAUGGUGUCGCCCUUUGUAGAAGGCGCGGGUA [salish99_ex3_r4_055] (Eterna round: R97, puzzle: Exclusion 3)				40.7	38.8	
AAAUACAAAGGAUAUACAUGAGGAUCACCCAUGUAGGUCAAUGCGCGGGCGAUGCCACGUAGAAGGUUGAAUAC [EX3 C.12] (Eterna round: R97, puzzle: Exclusion 3)				27.5	24.1	
ACAAAGGUAGGAUAUCGGACUAUGGACAUGAGGAUCACCCAUGUGCGUCCAGUGUCCAACCGAGAAGGACCCAAAA [Beinge] (puzzle: Exclusion 5)	83.2	86.1	91.6			
AAAACCUCUGUCAGGAUAUCCAUGCGUCCAAAAGCGGAGAAGGGACAUGAGGAUCACCCAUGUUAGCAAAAUCA [Ceenxequ] (puzzle: Brourd's mod of Exclusion 4)	119	34.9	38.5			
UUCAUGUGAGGAUAUAGUACUUCUUCUAUUAUUAUUGAGUACUAGAAGGCACAUGAGGAUCACCCAUGUAGUAC [Ex4 - 3 - 43] (Eterna round: R96, puzzle: Exclusion 4)				21.8	39.1	22.1
UUUAUGUCAGGAUAUACAUGAGGAUCACCCAUGUAUAUCUUAAAGUAUACAUGGGAAUGUAGAAGGGACGUCCU [LRO-Excl05-29-mod of Pseudoloop5 by Omei] (Eterna round: R97, puzzle: Exclusion 3)				31.3	30.2	
AAGAGUGCAGGAUAUACUUGGUAGGGCGGGUGGAUGAAGUGACAUGAGGAUCACCCAUGUAGAAGGGCAGAGAG [JR_Exclu2_Sub055] (puzzle: Exclusion 2)	24.6	21.4	25.7			
UCACGGGACUAAGGAUAUAUGAGUACCAUUUACAUAGAAGGUAGAAUGUUAGAUCAUAAACUAAACAUGAGGAUCACCCAUGUU [JR_ExcNG1_Sub092] (Eterna round: R96, puzzle: Exclusion NG 1)						15.3
GGCUUACAUGAGGAUCACCCAUGUCAGGAUAUAGAACGAUGGCGGAACGCCAUCGCCGCUAGAAGGGACCGGUG [Eternabot (Original) Solution 25] (Eterna round: R97, puzzle: Exclusion 1)				142	78	
CGUGACUCAGGAUAUGGAUUAUAUCACAUGAGGAUCACCCAUGUCCAGCGAAAGCUGGAGUCAGAAGGGAGUCACG [Fiskers Ex 5 - 48] (puzzle: Exclusion 5)	34.9	70.9	85.4			
CUGCUCCGUGUAGGAUAUGCGCGCACCCACCGCGCAGAAGGACAUGAGGAUCACCCAUGUAUGUUAUUAUCACGUGAGGCGCAG [Design 35] (Eterna round: R96, puzzle: Exclusion NG 1)				29.6	19.2	13.6
UAAAGUGAGUCCUCGCAGCAGCGUAGGGCGGUGCUAGCUACAUGAGGAUCACCCAUGUUUUCGCUCGUCCAGCACCU [Ceaorreti] (Eterna round: R96, puzzle: Sensor v2, turn-off variant 2)				89.2	101	59.2
AGUUGGCGAGGAUAUACAUGAGGAUCACCCAUGUGAAAUAGAAGAGUGAGGAAGAAAAGUAGAAGGCGCUGACA [Mat - Exclusion 3 - Mod of Salish D40] (puzzle: Exclusion 3)	134	69	107			
AAUAACAGAGGAUAUACUAUUUUAUGUGUUUGUUGUUUUGAACAUGAGGAUCACCCAUGUAGAAGGCUGAGUAA [JMF 40] (puzzle: Exclusion 2)		24.2				
UGUGGACAUGAGGAUCACCCAUGUCAGCCGUGUCCACCGAGAGAGGAUAUUGGUCAACCAGGGACUAAGAAGGCUCAGAGCUGG [Eternabot solution 47] (Eterna round: R96, puzzle: Exclusion NG 3)				30.3	46.4	37.4
CUUCUCAAAGGAUAUCACGGUAAUAACAUGAGGAUCACCCAUGUGCAAUUCGUGUCCCUGUGAGAAGGUUGAGAAG [Remaor] (puzzle: Exclusion 5)		10.5				
AUGAGCAGACGGAGAUCCAACAUGAGGAUCACCCAUGUCUCAUAAGCUUUUUGUUCAUCUUAUUGUACCUUGGUGCA [Mat - Sensor v3 - turn-off var 1 - JL Mod - D25] (puzzle: Sensor v3, turn-off variant 1)	57.2	30.5	55.5			
ACAAGCUUAAUCAGUAAGAACAUGAGGAUCACCCAUGUAAAUGAAAGGACUAUUGGGUUAUUUAAAGCUCGUCUUAU [JR_STOV1_Sub014] (Eterna round: R97, puzzle: Sensor, turn-off variant 1)				52.1	52.8	
AAUAAACAUGAGGAUCACCCAUGUCAGGAUAUACGAAGAAAGAAAGAAAGAAAGAAGAGUAGAAGGGAUAGGAA [Excls1-III] (puzzle: Exclusion 1)	31.6	29.3	32.6			
CGCUCACAUGAGGAUCACCCAUGUCAGGAUAUCUCAGUGCAUCCACACGGACGCAUCAAGAGAAGGGACAAAAC [Vinxlusion 3 - Jieux - Exclusion 1] (Eterna round: R97, puzzle: Exclusion 1)				189	112	
GCAGUAUGAGUUAGGAUAUGAUGAUUUUUUUUAUUUCAGAAGGAACUUGAGGAUCACCCAAGUUAAGAUUUGGU [JR_BMEx4_Sub068] (Eterna round: R97, puzzle: Brourd's mod of Exclusion 4)				45.6	24.6	
AGGUGUAGAGGAUAUCGACUUUCUCACAUGAGGAUCACCCAUGUCCUGGUCACCCAGGACCGAGAAGGCUACACCA [Omei Ex5 D27] (Eterna round: R97, puzzle: Exclusion 5)				204	27.6	
GGAUCGAGUGUGAGGAUAUGCUGGUCCUUGGAUCAGCAGAAGGCACAUGAGGAUCACCCAUGUGAAAACGGUCC [Mat - Exclusion 4 - JL Mod - D70] (puzzle: Brourd's mod of Exclusion 4)		22.7				
AGAAAGCAAGGAUAUACAAGGAAACGACGGAAAGUAGAGAGACAUGAGGAUCACCCAUGUAGAAGGUGCGAGAG [JR_Exclu2_Sub033] (puzzle: Exclusion 2)	32.1	24.5	29.1			
